Results on two proteins are retold here after doi:10.1101/2025.09.10.675349 (bioRxiv, 2025).

Positions count from the first letter of the chain named. Names and notes keep the numbering of the source.

The data set concerns the molecule itself. Put plainly: SEC. On the technique in general: SEC sorts molecules by how far they enter the pores of the column.

B1: Staphylococcus aureus serine protease-like protein B (SplB), recombinant, catalytically active (enzyme, UniProt Q2FFT0 37-240, looked up)
chain: ENNVTKVKDTNIFPYTGVVAFKSATGFVVGKNTILTNKHVSKNYKVGDRITAHPNSDKGNGGIYSIKKIINYPGKEDVSVIQVEERAIERGPKGFNFNDNVTPFKYAAGAKAGERIKVIGYPHPYKNKYVLYESTGPVMSVEGSSIVYSAHTESGNSGSPVLNSNNELVGIHFASDVKNDDNRNAYGVYFTPEIKKFIAENIDK
Turning to B1, the binding result was “binds”.

B2: Catalytically inactive SplB mutant (S193A), recombinant (enzyme, UniProt Q2FFT0 37-240, looked up)
chain: B1 chain with S157A
With B2, the binding result is “binds”.
